The record followed here is publication doi:10.1101/2025.05.28.656718.

This assay has as its target His-tagged PKM1 (human) (UniProt P14618). Nature of the assay: AlphaScreen or HTRF.

Pep-SP1, sequence (Q6SZW1 whole entry, looked up): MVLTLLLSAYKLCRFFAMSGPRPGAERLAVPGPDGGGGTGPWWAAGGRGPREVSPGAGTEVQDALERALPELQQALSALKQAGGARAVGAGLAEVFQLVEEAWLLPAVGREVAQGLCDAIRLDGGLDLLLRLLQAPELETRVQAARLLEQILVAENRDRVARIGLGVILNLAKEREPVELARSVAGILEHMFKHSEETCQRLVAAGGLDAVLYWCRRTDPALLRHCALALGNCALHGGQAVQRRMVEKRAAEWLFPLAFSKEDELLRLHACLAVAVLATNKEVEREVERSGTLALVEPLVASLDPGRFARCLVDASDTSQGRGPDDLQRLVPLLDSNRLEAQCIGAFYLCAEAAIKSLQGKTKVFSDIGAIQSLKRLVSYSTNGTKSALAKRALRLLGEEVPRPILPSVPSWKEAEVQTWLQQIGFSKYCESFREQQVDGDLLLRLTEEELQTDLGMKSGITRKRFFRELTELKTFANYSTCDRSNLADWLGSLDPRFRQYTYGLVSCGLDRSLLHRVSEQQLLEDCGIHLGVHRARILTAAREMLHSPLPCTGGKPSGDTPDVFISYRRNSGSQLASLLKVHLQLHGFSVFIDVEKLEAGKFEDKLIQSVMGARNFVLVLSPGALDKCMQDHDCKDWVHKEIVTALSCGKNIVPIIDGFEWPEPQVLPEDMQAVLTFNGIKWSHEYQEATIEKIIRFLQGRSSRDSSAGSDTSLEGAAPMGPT

In the case of “Pep-SP1 (from UniProt Q6SZW1 645-655) (peptide)”, the IC50 (as a rule, the concentration that gives 50% inhibition) is 1.07 µM.
